According to paper doi:10.1101/2022.08.12.503727:

Target: T1, RBP45d (Arabidopsis thaliana, UniProt Q8VXZ9 1-425)
T1 sequence: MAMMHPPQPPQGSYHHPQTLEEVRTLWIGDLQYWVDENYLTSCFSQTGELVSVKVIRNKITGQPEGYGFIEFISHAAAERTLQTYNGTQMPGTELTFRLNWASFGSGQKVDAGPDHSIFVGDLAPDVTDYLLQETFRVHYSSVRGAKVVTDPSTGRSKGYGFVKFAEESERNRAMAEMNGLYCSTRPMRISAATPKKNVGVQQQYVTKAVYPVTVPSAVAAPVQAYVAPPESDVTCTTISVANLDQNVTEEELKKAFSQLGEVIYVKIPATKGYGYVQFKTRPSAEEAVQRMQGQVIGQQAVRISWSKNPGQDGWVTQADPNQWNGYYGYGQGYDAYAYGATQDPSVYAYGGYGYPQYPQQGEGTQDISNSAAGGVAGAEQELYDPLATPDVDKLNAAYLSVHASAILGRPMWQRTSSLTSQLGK
Assay: EMSA

GUUUUGUUCGGUUUUGGUUUAGAUUUUUG (ssRNA) [Cy5-LPD1-IN2]
binding result: binds
